In paper PMC11610291:

Columns and labels:
ACKR4-HA (human) [1] = molecular target: T1, ACKR4-HA (human) (UniProt Q9NPB9)
T1 sequence: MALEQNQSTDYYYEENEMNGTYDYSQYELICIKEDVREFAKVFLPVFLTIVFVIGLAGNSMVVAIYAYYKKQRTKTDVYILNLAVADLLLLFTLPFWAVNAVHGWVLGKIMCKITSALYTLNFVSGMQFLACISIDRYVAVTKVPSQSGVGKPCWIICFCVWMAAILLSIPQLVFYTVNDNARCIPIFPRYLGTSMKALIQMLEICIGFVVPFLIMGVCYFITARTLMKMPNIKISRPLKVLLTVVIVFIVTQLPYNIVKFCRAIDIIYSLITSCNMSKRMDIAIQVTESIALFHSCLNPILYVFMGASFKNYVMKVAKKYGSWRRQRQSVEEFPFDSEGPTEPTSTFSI

ACKR4-HA (human) [2] = molecular target: T1, ACKR4-HA (human); remark: listed apart in the source

Chain of smBiT-βarrestin2 (P32121 whole entry): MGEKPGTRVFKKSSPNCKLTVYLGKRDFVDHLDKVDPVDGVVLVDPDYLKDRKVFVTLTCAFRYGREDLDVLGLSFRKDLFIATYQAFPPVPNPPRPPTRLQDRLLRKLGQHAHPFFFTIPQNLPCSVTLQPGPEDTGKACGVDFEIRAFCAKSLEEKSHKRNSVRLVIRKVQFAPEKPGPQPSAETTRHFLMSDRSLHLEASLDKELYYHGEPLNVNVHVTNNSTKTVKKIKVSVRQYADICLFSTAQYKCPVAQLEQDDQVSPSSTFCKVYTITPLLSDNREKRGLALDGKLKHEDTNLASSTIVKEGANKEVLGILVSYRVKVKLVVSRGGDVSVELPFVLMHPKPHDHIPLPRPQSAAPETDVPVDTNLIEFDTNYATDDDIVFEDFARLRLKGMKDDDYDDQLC
Chain of smBiT-βarrestin1 (P49407 whole entry): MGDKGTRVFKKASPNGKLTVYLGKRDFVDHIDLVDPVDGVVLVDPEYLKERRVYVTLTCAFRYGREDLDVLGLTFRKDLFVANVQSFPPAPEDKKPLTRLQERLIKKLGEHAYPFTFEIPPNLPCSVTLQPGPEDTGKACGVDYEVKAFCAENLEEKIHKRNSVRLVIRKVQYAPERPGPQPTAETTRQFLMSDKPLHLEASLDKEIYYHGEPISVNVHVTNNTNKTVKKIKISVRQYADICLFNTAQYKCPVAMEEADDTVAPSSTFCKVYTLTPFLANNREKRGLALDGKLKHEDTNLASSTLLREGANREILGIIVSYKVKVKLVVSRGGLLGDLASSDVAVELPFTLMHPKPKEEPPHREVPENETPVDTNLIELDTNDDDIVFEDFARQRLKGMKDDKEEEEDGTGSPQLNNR

| Substance | bystander NanoBiT (smBiT-βarrestin2 with lgBiT-CAAX) in HEK293: CCL19-driven recruitment to the plasma membrane, as compared to native ACKR4 (% of native ACKR4) (ACKR4-HA (human) [1]) | bystander NanoBiT (smBiT-βarrestin2 with lgBiT-CAAX) in HEK293: pre-association with the plasma membrane in the absence of CCL19, as compared to cells expressing native ACKR4 (times higher than native ACKR4) (ACKR4-HA (human) [2]) | bystander NanoBiT (smBiT-βarrestin1 with lgBiT-CAAX) in HEK293: CCL19-driven recruitment to the plasma membrane, as compared to native ACKR4 (% of native ACKR4) (ACKR4-HA (human) [1]) | bystander NanoBiT (smBiT-βarrestin1 with lgBiT-CAAX) in HEK293: pre-association with the plasma membrane in the absence of CCL19, as compared to cells expressing native ACKR4 (times higher than native ACKR4) (ACKR4-HA (human) [2]) |
| --- | --- | --- | --- | --- |
| smBiT-βarrestin2 (from UniProt P32121 1-409) (natural protein) | 27 | 3.3 | – | – |
| smBiT-βarrestin1 (from UniProt P49407 1-418) (natural protein) | – | – | 42 | 2.9 |
